Target: T1, human PDL1 (overexpressed on DLD1-PDL1 cells) (human, UniProt Q9NZQ7 19-290)
T1 construct: whole, on cells; also called B7H1; CD274
Assay: flow cytometry on DLD1-PDL1 cells, GMFI plotted against DSP105 conc. [ug/ml] (two-fold steps)
From the text: Following, GMFI values were used to create a binding curve graph with a GraphPad Prism software (FIG. 10C). Taken together, both sides of the His-tagged DSP105_V17 (SEQ ID NO: 97), fusion protein, bind their relevant counterparts overexpressed on the surface of cells.

T1 sequence (Q9NZQ7 19-290): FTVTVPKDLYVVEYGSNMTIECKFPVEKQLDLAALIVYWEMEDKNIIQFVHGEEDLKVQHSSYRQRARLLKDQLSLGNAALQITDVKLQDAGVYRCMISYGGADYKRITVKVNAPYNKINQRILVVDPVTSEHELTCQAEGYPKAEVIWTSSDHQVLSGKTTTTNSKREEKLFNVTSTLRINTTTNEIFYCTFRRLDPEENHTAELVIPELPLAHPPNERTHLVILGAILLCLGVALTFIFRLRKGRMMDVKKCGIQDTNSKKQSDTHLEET

- EC50 (read off the curve): ~0.9 mg/L
B1: N-terminal His-tagged DSP105_V17 (PD1-4-1BBL variant fusion protein) (other)
chain: HHHHHHDSPDRPWNPPTFSPALLVVTEGDNATFTCSFSNTSESFVLNWYRMSPSNQTDKLAAFPEDRSQPGQDSRFRVTQLPNGRDFHMSVVRARRNDSGTYLCGAISLAPKAQIKESLRAELRVTERRAEVPTAHPSPSPRPAGQGSAASPRLREGPELSPDDPAGLLDLRQGMFAQLVAQNVLLIDGPLSWYSDPGLAGVSLTGGLSYKEDTKELVVAKAGVYYVFFQLELRRVVAGEGSGSVSLALHLQPLRSAAGAAALALTVDLPPASSEARNSAFGFQGRLLHLSAGQRLGVHLHTEARARHAWQLTQGATVLGLFRVTPEIPAGLPSPRSE
notes: also called N-terminal His-tagged DSP105_var17

Source: US20210284711A1 (KAHR MEDICAL, published 2021)
